Assay [1] concerns the target T1, human W3785-hProl.ECD.His (Human-TNFR2-His) protein (human, UniProt P20333 23-257).
T1 construct: extracellular domain; not shown: His tag
T1 sequence (looked up): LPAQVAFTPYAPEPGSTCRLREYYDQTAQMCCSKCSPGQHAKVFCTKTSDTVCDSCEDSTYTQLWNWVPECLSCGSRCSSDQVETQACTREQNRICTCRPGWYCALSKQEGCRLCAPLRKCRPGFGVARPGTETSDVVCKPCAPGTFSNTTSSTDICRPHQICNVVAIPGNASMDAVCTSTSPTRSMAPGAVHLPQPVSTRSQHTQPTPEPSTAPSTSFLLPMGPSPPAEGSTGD
Nature of the assay: BLI (Octet Red96e), antibody on AHC sensor, Human-TNFR2-His in solution, multiple concentrations.

The target of assay [2] is T1, human W3785-hProl.ECD.His …. In words: indirect ELISA on coated Human-TNFR2-His. On the procedure:
(1) Coating: Human-TNFR2-His was diluted to 0.5 μg/mL with coating solution (1×PBS, pH 7.4), and coated into a 96-well ELISA plate at 100 μL/well at 4° C. overnight. The coating solution was poured off, and the plate was washed with 1×PBST at 300 μL per well, washed with a plate cleaning instrument for 4 times, and patted dry on sheet paper. [0184] (2) Blocking: it was blocked with 3% non-fat dry milk at 300 μL/well, and incubated at 37° C. for 1 h. The blocking solution was poured off, washed by a plate cleaning instrument for 4 times, and patted dry on sheet paper. [0185] (3) Sample dilution: the reference product and the test product were diluted with 3% non-fat dry milk to 10 μg/mL, and this was used as the initial concentration for 3-fold dilution with a total of 11 gradients of dilution, and another one blank well was set up, and only diluent was added. It was incubated at 100 μL/well at 37° C. for 1 h. Liquid in the wells was discarded, washed by a plate cleaning instrument for 4 times, and patted dry on the sheet paper. [0186] (4) Addition of enzyme-labeled secondary antibody: Peroxidase-conjugated AffiniPure F(ab′)2 Fragment Goat Anti-Human IgG was diluted with 3% non-fat dry milk at 1:20,000. It was incubated at 100 μL/well at 37° C. for 1 h. It was washed by a plate cleaning instrument for 6 times and patted dry on sheet paper. […] (5) Color development: TMB color development solution was added at 100 μL/well and wrapped with aluminium foil, and the color was developed at 37° C. without light for 8 min. [0188] (6) Termination of color development: terminal solution 1 M HCl was added to terminate the color development reaction at 100 μL/well. [0189] (7) Reading at 450 nm on the enzyme labeler. [0190]

Assay [3] has the same target. Nature of the assay: BLI (Octet Red96e), antibody on AHC sensor, Human-TNFR2-His in solution, single concentration. On the procedure: After equilibration of the AHC sensor with 0.02% PBST (0.02% Tween 20, pH 7.4, 1*PBS) as buffer for 60 s, the TNFR2 antibody in the sample plate was immobilized for 300 s, and second equilibration was performed for 180 s. 100 nM of human W3785-hProl.ECD.His (Human-TNFR2-His) protein was bound with the TNFR2 antibody for 300 s and then dissociated for 600 s. After dissociation, 10 mM glycine (pH 2.0) was used as regeneration buffer to regenerate for 30 s.

Assay [4] concerns the target T2, Recombinant human TNFR2-His Tag protein (Sino, Cat: 10417-H08H) (human, UniProt P20333 23-257).
T2 construct: Bought protein; also called hTNFR2; not shown: His tag
T2 sequence (looked up): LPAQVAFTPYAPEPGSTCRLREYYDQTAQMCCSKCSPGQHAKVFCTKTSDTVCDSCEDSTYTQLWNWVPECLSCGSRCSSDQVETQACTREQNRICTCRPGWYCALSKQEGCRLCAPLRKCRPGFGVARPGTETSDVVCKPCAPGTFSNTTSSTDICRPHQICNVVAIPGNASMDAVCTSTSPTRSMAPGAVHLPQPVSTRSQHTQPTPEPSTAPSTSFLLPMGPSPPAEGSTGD
In words: competition ELISA: captured TNFR2-His, antibody titrated against 1.6 nM biotin-TNF-alpha (competitor). On the procedure:
Anti-His antibody (1 μg/mL) was coated at 50 μL/well, incubated at 4° C. overnight and washed 3 times with PBST. 2% BSA was added at 200 μL/well, incubated at room temperature for 1 hour and washed 3 times with PBST. 0.25 μg/mL (containing 2% BSA) of recombinant human TNFR2-His Tag protein (Sino; Cat: 10417-H08H) was added at 50 μL/well, incubated for 1 hour at room temperature and washed 3 times with PBST. Primary antibody (isotype control or candidate antibody) was added at a concentration of 100 nM and diluted 4-fold in 11 gradients with a solution containing 1.6 nM recombinant human TNF-alpha-Biotin protein (Sino; Cat: 10602-HANE-B) and 2% BSA, incubated for 2 hours at room temperature and washed 3 times with PBST. Secondary antibody SA-HRP (1:5000) containing 2% BSA was added at 50 μL/well, incubated for 1 hour at room temperature and washed 3 times with PBST.
After washing, TMB developed the color for 10 min, and the OD450 reading was determined by the enzyme labeler after the display was terminated. Based on the experimental results, it was judged whether the candidate antibodies had ligand blocking activity. As shown in Table 2 and FIG. 2, 2 sequences show better ligand blocking ability than BMK2; 6 sequences show equivalent ligand blocking ability to BMK2.

For assay [5], the target named is T2, Recombinant human TNFR2-His Tag protein …. In words: SPR (Biacore 8K), antibody captured by anti-rat Fc, 10 nM TNFR2-His as analyte, 1:1 model. On the procedure: The CM5 sensor chip was activated at a flow rate of […] for 420 s. The channel was then injected with 30 μg/mL of anti-rat Fc IgG in 10 mM NaAc (pH 4.5) at a flow rate of 10 μL/min. The chip was inactivated with 1 M ethanolamine-hydrochloric acid (GE) for 420 s at a flow rate of 10 μL/min.
Candidate antibodies in running buffer 1×HBS-EP+(10 mM HEPES, 150 mM NaCl, 3 mM EDTA, 0.05% Tween 20, pH 7.4) were captured onto Fc2 with anti-rat Fc IgG at a flow rate of 10 μL/min. The 10 nM recombinant human TNFR2-His Tag protein (Sino; Cat: 10417-H08H) and running buffer were sequentially injected into Fc1-Fc2 at a flow rate of […], bound for 180 s, and then dissociated for 3600 s. 10 mM glycine (pH 1.5) was injected as regeneration buffer after each dissociation.
Result plots for the reference channel Fc1 and the buffer channel were subtracted from the test result plots. The experimental data fit the 1:1 binding model. The molecular weight of 26.6 kDa was used to calculate the molar concentration of recombinant human TNFR2-His Tag protein.

Assay [6] concerns the target T3, human TNFR2 (tumor necrosis factor receptor 2), on cells (human, UniProt P20333 23-461).
T3 construct: whole, on cells; also called hTNFR2; CHOK1-hTNFR2
T3 sequence (looked up): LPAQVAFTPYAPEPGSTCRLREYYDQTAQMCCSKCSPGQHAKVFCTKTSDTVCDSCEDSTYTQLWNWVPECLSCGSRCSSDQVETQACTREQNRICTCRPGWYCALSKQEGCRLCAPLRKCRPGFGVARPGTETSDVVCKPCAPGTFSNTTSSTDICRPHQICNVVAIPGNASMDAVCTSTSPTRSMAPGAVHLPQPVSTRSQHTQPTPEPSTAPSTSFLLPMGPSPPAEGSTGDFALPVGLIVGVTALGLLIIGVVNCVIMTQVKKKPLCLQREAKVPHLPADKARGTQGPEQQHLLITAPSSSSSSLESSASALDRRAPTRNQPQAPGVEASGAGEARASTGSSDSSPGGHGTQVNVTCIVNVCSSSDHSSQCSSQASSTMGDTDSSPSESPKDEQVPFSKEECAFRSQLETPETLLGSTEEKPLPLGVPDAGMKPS
In words: flow cytometry on CHOK1-hTNFR2 cells. On the procedure: CHOK1-hTNFR2 cells were plated at 1×10⁵/well (containing 1% BSA). 100 μL of isotype control and candidate antibodies were added at a concentration of 100 nm and 4-fold diluted in 11 gradients (containing 1% BSA). Cells were incubated at 4° C. for 1 hour and then washed twice with excess FACS buffer. Cells were resuspended in 100 μL of FACS buffer, and 100 μL of goat anti-rat IgG Fc-AF647 (1:500) containing 1% BSA was added, incubated at 4° C. without light for 30 minutes and washed twice with excess FACS buffer. Cells were fixed in fixation buffer and subsequently analyzed by flow cytometry. The FACS method screened for candidate antibodies with high specific binding activity to human TNFR2.

B1: Antibody 22 (antibody, V domains shown)
VH: EVQLVESGGGLVKPGGSLRLSCAASGFTFSNAWMGWVRQAPEKGLEWVGQIKDKSNNYPTYYAESVKGRFTISRDDSKNTLYLQMNSLKTEDTAVYYCTTYGDFFDYWGQGTLVTVSS
VL: DIQMTQSPSSLSASVGDRVTITCRASEDIYQGLAWYQQKPGKVPKLLLYNANSLHTGVPSRFSGSGSGTDYTLTISSLQPEDFATYFCQQYYDHPLTFGQGTKLEIK
notes: detected with anti-human IgG and captured on AHC sensors
In assay [1], B1 yielded a Kd of 0.33 nM, a koff of 0.000165 s⁻¹ and an on-rate constant (kon) of 500000 M⁻¹ s⁻¹. Besides, the concentration giving a half-maximal response (EC50) in assay [2] turned out to be 0.0137 µg/mL.

B2: Antibody 11-xIgG1K (antibody, V domains shown)
VH: EVQLQQSGPELRRPGSSVKLSCKASGYSITDYLLHWVKHSPEHGLEWIGWIDPEDGKTKYGQKFQSKATLTADTSSNAAYMQLSSLTSEDSATYFCAANSGTGTMDAWGQGASVTVSS
VL: DIVMTQSPTSMSISVGDRVTLNCKASQNVGSNVDWYQQKTGQSPKVLLYKASIRYTGVPDRFTGSGSGTEFTFTITNMQAEDLAVYFCMQSKSYPITFGSGTKLEIKR
notes: Rat-human chimeric antibody, human IgG1 kappa
In assay [1], B2 registered an equilibrium dissociation constant (Kd) of 0.317 nM, a koff of 0.000171 s⁻¹ and a kon of 542000 M⁻¹ s⁻¹. This molecule also registered a Kd in assay [3] of 0.396 nM.

B3: Antibody 11 (antibody, V domains shown)
VH: EVQLQQSGPELRRPGSSVKLSCKASGYSITDYLLHWVKHSPEHGLEWIGWIDPEDGKTKYGQKFQSKATLTADTSSNAAYMQLSSLTSEDSATYFCAANSGTGTMDAWGQGASVTVSS
VL: DIVMTQSPTSMSISVGDRVTLNCKASQNVGSNVDWYQQKTGQSPKVLLYKASIRYTGVPDRFTGSGSGTEFTFTITNMQAEDLAVYFCMQSKSYPITFGSGTKLEIK
notes: Rat monoclonal antibody from a hybridoma
Regarding B3, in assay [4], the IC50 is more than 100 nM and the “Inhibition rate (%)” value came to 22.4%. Also, in assay [5], the Kd was found to be 1.4 nM, the koff amounted to 0.000169 s⁻¹ and the on-rate (kon) amounted to 120000 M⁻¹ s⁻¹. Also, in assay [6], the response was half-maximal at 0.493 nM (EC50) and the “Maximum average fluorescence value” worked out at 1010.

B4: Antibody 10-xIgG1K (antibody, V domains shown)
VH: EVQLVETGGGLVQPGKSLKLTCATSGFTFSNAWMGWVRQSPEKQLEWVAQIKDKSNNYPTYYAESVKGRFTISRDDSESSVYLQMNSLKEEDTAIYYCTGYGDFFDYWGQGVVVTVSS
VL: DIQMTQSPASLSASLGETVTIECRASEDIYNGLAWYQQKPGNSPRLLIFNANSLHTGVPSRFSGSGSGTQYSLKINSLQSEDVASYFCQQYYDHPLTFGSGIKLEIKR
notes: as for B2
For the molecule B4, in assay [1], the Kd is 0.0996 nM, the koff turned out to be 8.1e-05 s⁻¹ and the association rate constant (kon) came out at 813000 M⁻¹ s⁻¹. Further, a half-maximal response in assay [2] (EC50) required 0.0143 µg/mL. Besides, the Kd in assay [3] worked out at 0.24 nM.

B5: Antibody 10 (antibody, V domains shown)
VH: EVQLVETGGGLVQPGKSLKLTCATSGFTFSNAWMGWVRQSPEKQLEWVAQIKDKSNNYPTYYAESVKGRFTISRDDSESSVYLQMNSLKEEDTAIYYCTGYGDFFDYWGQGVVVTVSS
VL: DIQMTQSPASLSASLGETVTIECRASEDIYNGLAWYQQKPGNSPRLLIFNANSLHTGVPSRFSGSGSGTQYSLKINSLQSEDVASYFCQQYYDHPLTFGSGIKLEIK
notes: as for B3
Consider B5, for which, in assay [4], the IC50 was more than 100 nM and the “Inhibition rate (%)” value stood at 12.2%. Moreover, in assay [5], the Kd amounted to 0.15 nM, the koff turned out to be 7.4e-05 s⁻¹ and the kon is 492000 M⁻¹ s⁻¹. Moreover, in assay [6], a half-maximal effect (EC50) was put at 0.077 nM and the “Maximum average fluorescence value” came out at 907.

B6: Antibody 04-xIgG1K (antibody, V domains shown)
VH: EVHLQQSGPEVGRPGSSVKISCKASGYTFTDYIIHWVKQSPGQGLEWMGWIDPDYGNTDYADKFKKKATLTADASSNTAFIHLSRLTSEDTATYFCARDDGSPLVMDAWGQGTSVTVSS
VL: NIQLTQSPSLLSASVGDRVTLSCNGSQNIDNYLAWFQQKLGEAPKLLIYSTYSLQTGIPSRFSGSRSGTDYTLTISSLQPEDVATYFCFQYNNGYMFGAGTKLELKR
notes: as for B2
B6: in assay [1], binding was characterised by a dissociation constant (Kd) of 0.0606 nM, the koff is 6.65e-05 s⁻¹ and the kon stood at 1.1e+06 M⁻¹ s⁻¹. This molecule gave an EC50 in assay [2] of 0.00581 µg/mL. Further, binding in assay [3] was characterised by a dissociation constant (Kd) of 0.148 nM.
